In paper doi:10.1101/2020.05.08.084889 (bioRxiv, 2020):

B1: Recombinant rat EfnB1-FC (Fc fusion)
chain: ATPLAKNLEPVSWSSLNPKFLSGKGLVIYPKIGDKLDIICPRAEAGRPYEYYKLYLVRPEQAAACSTVLDPNVLVTCNKPQQEIRFTIKFQEFSPNYMGLEFKKYHDYYITSTSNGSLEGLENREGGVCRTRTMKIVMKVGQDPNAVTPEQLTTSRPSKESDNTVKTATQAPGRGSQGDSDGKHETVNQQEKSGPGAGGSGSGDTDSFFNSK

Columns and labels:
[1] = biological target: the molecule itself; test: single molecule AFM force measurement
Recombinant rat EfnB1-FC = biological target: B1; test: single molecule AFM force measurement

| fold of heterophilic binding over EfnB1 homophilic binding (Recombinant rat EfnB1-FC) | Binder | binding result [1] |
| --- | --- | --- |
| – | Desmocollin-3 complete extracellular region, biotinylated (Dsc3-ATH) (domain or fragment, biotin on the Avi-tag (BirA enzyme)) RWAPIPCSMQENSLGPFPLFLQQVESDAAQNYTVFYSISGRGVDKEPLNLFYIERDTGNLFCTRPVDREEYDVFDLIAYASTADGYSADLPLPLPIRVEDENDNHPVFTEAIYNFEVLESSRPGTTVGVVCATDRDEPDTMHTRLKYSILQQTPRSPGLFSVHPSTGVITTVSHYLDREVVDKYSLIMKVQDMDGQFFGLIGTSTCIITVTDSNDNAPTFRQNAYEAFVEENAFNVEILRIPIEDKDLINTANWRVNFTILKGNENGHFKISTDKETNEGVLSVVKPLNYEENRQVNLEIGVNNEAPFARDIPRVTALNRALVTVHVRDLDEGPECTPAAQYVRIKENLAVGSKINGYKAYDPENRNGNGLRYKKLHDPKGWITIDEISGSIITSKILDREVETPKNELYNITVLAIDKDDRSCTGTLAVNIEDVNDNPPEILQEYVVICKPKMGYTDILAVDPDEPVHGAPFYFSLPNTSPEISRLWSLTKVNDTAARLSYQKNAGFQEYTIPITVKDRAGQAATKLLRVNLCECTHPTQCRATSRSTGVILGK | binds |
| ~3 fold | E-cadherin complete extracellular region, biotinylated (Ecad-ATH) (domain or fragment, biotin on the Avi-tag (BirA enzyme)) DWVIPPISCPENEKGPFPKNLVQIKSNRDKEIKVFYSITGQGADAPPVGVFIIERETGWLKVTEPLDREQIAKYILYSHAVSSNGNAVEDPMEIVITVTDQNDNKPEFTQAVFQGSVTEGALPGTSVMQVTATDADDDVNTYNAAIAYSILTQDPLLPSSMMFTINKDTGVISVLTTGLDREGVPMYTLVVQAADLQGEGLTTTATAVITVTDINDNPPIFNPTTYQGRVPENKANVEIAVLKVTDADVPDTPAWRAVYTILNNNNDQFVVTTDPVTNDGILKTTKGLDFEDKQQYVLYVTVVNVTPFEVILSTSTATVTVDVEDVNEAPIFIPCPKVVSIPEDFGVGQEITSYTAEDPDTYMEQRITYRIWRDAAGWLEVNPESGAIFTRAELDREDFEHVKNSTYEALIIAIDNGSPVATGTGTLLLVLSDVNDNGPIPEPRNMDFCQKNPQPHVINIIDPDLPPNTSPFTAELTHGASVNWTIEYNDPARESLILKPKKTLELGDYKINLKLTDNQNKDQVTTLDVFVCDCEGVVNSCKRTAPYAEAGLQVPA | – |
| – | B1 | binds |
